# Results: patent US20180155399A1
# T1: murine TFPI 1-160 (mouse), O54819
# T1 chain: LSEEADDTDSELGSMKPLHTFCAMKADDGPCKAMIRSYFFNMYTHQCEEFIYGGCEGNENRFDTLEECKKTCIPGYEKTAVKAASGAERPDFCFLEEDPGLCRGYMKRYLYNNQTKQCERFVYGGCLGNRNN
# Target: T2, human Tissue Factor Pathway Inhibitor-1α (TFPI-1α) (human), P10646
# Assay: not given
# Conditions: modification not given
# T2 sequence (P10646 29-304): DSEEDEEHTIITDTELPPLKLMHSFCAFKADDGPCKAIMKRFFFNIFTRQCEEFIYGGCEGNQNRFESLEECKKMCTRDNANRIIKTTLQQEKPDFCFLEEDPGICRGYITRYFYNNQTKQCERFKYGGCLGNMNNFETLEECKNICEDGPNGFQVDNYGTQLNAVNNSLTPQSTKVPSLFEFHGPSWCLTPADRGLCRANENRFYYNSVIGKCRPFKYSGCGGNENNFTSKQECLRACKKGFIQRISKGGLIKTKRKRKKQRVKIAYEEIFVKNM
row,Binder,EC50
1,FQSKGNVFVTGYFARLRAKL [JBT0720],0.22 µM

# Target: T1, murine TFPI 1-160 (mouse), O54819
# Assay: cell-based or functional assay
# Conditions: not given
row,Binder,FXa inhibition assay
1,SYYKWHCAMRDMKGTMTCVWVKF (modifications not checked) [JBT1837],> 10 µM

# Target: T2, human Tissue Factor Pathway …
# Assay: competition
# Conditions: modification not given
row,Binder,IC50
1,FQSKKNVFVFGYFERLDAKL [JBT0598],> 5 µM
2,FQSKKNVFDFGYFERLRAKL [JBT0592],> 5 µM
3,LKARLREFYGFVFVNKKSQF [JBT0783],> 1.67 µM
4,FQLKKNVFVFGYFERLRAKL [JBT0603],> 5 µM
5,FQSKKNVFVFGDFERLRAKL [JBT0594],> 5 µM
6,FQSKGNVFVFGYFDRLRAKL [JBT0528],0.107 µM
7,AQSKGNVFVFGYFERLRAKL [JBT0497],0.1 µM
8,FQSKKFVFVFGYFERLRAKL [JBT0574],> 5 µM
9,FQSKKNVFVFFYFERLRAKL [JBT0576],> 1.67 µM
10,FQSLKNVFVFGYFERLRAKL [JBT0604],> 1.67 µM
11,FQSFKNVFVFGYFERLRAKL [JBT0572],> 5 µM
12,FQSKKNVFVFGFFERLRAKL [JBT0577],> 5 µM
13,FESKGNVFVFGYFERLRAKL [JBT0516],1.19 µM
14,FQSKKNVFVFGYFERDRAKL [JBT0597],> 5 µM
15,FQSKGDVFVFGYFERLRAKL [JBT0520],0.188 µM
16,FQSKGNVFVTGYFARLRAKL [JBT0720],0.027 µM
17,FQSKKNVFVFGYFERLFAKL [JBT0581],> 5 µM
18,FLSKKNVFVFGYFERLRAKL [JBT0602],> 5 µM

row,Binder,IC50
1,FFSKKNVFVFGYFERLRAKL [JBT0570],> 5 µM
2,FQSKKNVFVFGYFEFLRAKL [JBT0579],> 5 µM
3,FQSKKNVFVFGYFERLRAFL [JBT0583],> 5 µM
4,FQSKNNVFVHGYFERLRAKL [JBT0487],0.04 µM
5,FQFKKNVFVFGYFERLRAKL [JBT0571],> 5 µM
6,FDSKKNVFVFGYFERLRAKL [JBT0586],> 1.67 µM
7,FQSKLNVFVFGYFERLRAKL [JBT0605],> 1.67 µM
8,FQSKFNVFVFGYFERLRAKL [JBT0573],1.37 µM
9,FQSVGNVFVDGYFERLSAKL [JBT1278],0.073 µM
10,FQSKKLVFVFGYFERLRAKL [JBT0606],> 5 µM
11,FQSKKNVDVFGYFERLRAKL [JBT0591],> 5 µM
12,FQSKKNDFVFGYFERLRAKL [JBT0590],> 5 µM
13,FQSKKNVFVFGYFERFRAKL [JBT0580],> 5 µM
14,FQSKGNVFVFAYFERLRAKL [JBT0525],> 5 µM
15,FQSKKNVFVFGYFERLRFKL [JBT0582],> 5 µM
16,FQSDKNVFVFGYFERLRAKL [JBT0588],> 5 µM
17,FQSKGNVFVAGYFARLRAKL [JBT0806],0.042 µM
